Molecular target: T1, human NOTCH3 extracellular domain (human, UniProt Q9UM47 40-1643)
T1 construct: In the tissue IHC the target is endogenous NOTCH3 in tumor sections; also called NOTCH3 ECD
Experiment: screening by FACS, Western blot and IHC on FFPE pellets of HEK-293 cells transiently transfected with NOTCH ECD constructs
Source text: Screening was first done by FACS, followed by Western blot analyses and then in IHC assays using HEK-293 cells transiently transfected with NOTCH1, NOTCH2, NOTCH3, or NOTCH4 ECD constructs. Starting with 68 supernatants from hybridoma cells, seven candidate antibodies were selected for further testing and optimization in IHC assays, 122M23, 122M25, 122M26, 122M27, 122M35, 122M36, and 122M40. […] The desired antibody needed to be specific for NOTCH3 ECD, so the staining had to be predominantly membrane localized, with minimal or no detectable background non-specific staining in transiently transfected cell pellets in FFPE format. In addition, the antibody had to give appropriate results on positive and negative control tissues.

T1 sequence (Q9UM47 40-1643 limits assumed): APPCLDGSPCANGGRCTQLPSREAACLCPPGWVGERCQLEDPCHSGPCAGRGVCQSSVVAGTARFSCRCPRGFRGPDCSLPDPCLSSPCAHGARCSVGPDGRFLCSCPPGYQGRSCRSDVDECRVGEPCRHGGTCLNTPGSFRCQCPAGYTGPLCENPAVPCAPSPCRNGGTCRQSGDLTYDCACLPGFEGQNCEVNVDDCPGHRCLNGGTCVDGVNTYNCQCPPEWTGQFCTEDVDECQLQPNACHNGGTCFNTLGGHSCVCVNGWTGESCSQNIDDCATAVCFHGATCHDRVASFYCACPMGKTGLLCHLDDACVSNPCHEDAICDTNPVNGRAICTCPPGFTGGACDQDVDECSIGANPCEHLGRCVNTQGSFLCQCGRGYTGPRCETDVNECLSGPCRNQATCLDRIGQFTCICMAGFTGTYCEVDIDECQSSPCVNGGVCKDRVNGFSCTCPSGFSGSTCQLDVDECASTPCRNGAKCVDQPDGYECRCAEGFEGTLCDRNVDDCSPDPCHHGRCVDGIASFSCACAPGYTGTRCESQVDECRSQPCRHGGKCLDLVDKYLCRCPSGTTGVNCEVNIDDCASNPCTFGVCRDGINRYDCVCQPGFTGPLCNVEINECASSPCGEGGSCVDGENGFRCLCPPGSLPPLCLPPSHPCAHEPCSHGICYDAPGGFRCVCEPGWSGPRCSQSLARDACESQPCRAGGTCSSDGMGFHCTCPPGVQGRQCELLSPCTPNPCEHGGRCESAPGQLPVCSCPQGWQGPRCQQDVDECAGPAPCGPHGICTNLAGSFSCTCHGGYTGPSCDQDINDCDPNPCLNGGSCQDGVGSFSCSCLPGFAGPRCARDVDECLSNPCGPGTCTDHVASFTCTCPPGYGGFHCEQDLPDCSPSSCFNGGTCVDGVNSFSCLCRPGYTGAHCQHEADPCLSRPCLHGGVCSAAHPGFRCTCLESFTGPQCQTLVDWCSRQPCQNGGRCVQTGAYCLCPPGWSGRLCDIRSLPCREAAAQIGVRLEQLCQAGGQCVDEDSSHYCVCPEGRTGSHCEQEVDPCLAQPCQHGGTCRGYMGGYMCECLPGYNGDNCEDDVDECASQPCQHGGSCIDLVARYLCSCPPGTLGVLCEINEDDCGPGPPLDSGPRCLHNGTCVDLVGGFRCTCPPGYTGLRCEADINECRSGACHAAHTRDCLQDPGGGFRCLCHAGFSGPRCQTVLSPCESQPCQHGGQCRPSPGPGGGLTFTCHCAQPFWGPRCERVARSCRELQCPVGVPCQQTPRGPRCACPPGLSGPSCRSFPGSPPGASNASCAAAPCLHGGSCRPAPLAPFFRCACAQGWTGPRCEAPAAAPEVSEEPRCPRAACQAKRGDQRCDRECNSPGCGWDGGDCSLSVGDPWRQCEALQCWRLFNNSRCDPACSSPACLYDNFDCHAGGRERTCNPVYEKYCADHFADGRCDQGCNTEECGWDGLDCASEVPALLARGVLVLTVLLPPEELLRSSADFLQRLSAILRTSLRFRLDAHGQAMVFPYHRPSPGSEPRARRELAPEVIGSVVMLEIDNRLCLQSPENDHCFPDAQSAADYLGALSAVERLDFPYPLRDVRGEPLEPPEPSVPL

binding result: binds
B1: anti-NOTCH3 antibody 122M23 (antibody, V domains shown)
VH: QVQLQQSGAELARPGASVKMSCKASGYTFTKYTIHWVAQKPGQGLEWIGYINPSNDYTNYNQTFKDKATLTADKSSTTAYMQLISLTSADSTVFYCARGTTPYSLDYWGQGTSVTVSS
VL: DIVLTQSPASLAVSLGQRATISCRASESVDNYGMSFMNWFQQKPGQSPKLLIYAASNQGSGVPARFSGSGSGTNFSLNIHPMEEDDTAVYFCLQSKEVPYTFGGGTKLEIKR
notes: Murine monoclonal antibody from a hybridoma (ATCC PTA-121154); also called murine monoclonal antibody 122M23
